The values that follow come from patent US7795221B2, “Linear natriuretic peptide constructs” (Palatin Technologies, Inc., priority 2006, dated 2010).

A word on the AUC: it is the area under the concentration-time curve, a measure of exposure. For orientation: Vd means the apparent volume that relates the amount in the body to the concentration in plasma or blood. Lower therefore signals confinement near the circulation. The clearance is a measure of how efficiently the substance is removed, as volume per time. The low end stands for a low capacity for elimination, the high end for a high capacity for elimination. By half-life is commonly meant how long it takes for the measured level to halve. A high value points to slow loss. In general, Ki refers to the equilibrium dissociation constant of an inhibitor or competing ligand from its target.

On the set-up of data set [1]: species or system Sprague-Dawley rats. The conditions noted are these: rat, in vivo, iv, 2 mg/kg. As to the method: . […] The total run time was 6 minutes.
Data set [2] addresses T1, human natriuretic peptide receptor A (human, UniProt P16066 33-1061).
T1 construct: whole, on cells; The cGMP assay used whole HEK-hNPRA cells; also called NPRA; hNPRA
T1 sequence (looked up): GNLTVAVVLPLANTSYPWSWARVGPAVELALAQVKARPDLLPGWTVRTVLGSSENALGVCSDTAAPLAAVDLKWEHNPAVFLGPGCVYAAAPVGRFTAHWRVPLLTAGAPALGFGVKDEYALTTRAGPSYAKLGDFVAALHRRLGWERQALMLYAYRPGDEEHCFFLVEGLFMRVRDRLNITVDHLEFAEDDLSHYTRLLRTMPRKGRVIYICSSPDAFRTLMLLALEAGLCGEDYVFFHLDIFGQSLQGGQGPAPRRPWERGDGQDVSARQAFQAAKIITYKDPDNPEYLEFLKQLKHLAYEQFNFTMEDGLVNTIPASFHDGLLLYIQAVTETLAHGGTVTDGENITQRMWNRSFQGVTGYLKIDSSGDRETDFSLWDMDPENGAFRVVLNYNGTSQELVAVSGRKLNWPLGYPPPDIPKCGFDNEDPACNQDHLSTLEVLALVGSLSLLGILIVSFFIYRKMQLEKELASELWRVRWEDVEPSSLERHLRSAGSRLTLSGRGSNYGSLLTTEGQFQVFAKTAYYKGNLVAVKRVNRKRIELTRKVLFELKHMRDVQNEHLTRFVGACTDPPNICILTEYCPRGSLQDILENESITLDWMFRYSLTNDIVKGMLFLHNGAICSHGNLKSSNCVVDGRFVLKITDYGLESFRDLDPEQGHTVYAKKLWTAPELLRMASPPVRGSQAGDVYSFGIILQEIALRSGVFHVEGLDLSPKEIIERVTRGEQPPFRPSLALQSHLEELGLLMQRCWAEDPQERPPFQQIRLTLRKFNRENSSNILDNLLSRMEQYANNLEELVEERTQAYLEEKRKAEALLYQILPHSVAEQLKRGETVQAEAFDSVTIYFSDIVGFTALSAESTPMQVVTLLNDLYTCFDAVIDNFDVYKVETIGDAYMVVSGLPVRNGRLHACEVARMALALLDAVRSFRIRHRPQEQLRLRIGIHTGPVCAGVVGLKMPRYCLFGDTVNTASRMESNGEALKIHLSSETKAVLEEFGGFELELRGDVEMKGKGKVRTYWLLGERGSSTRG
The data set can be described thus: competitive inhibition of [125I]-ANP binding to HEK-hNPRA membrane homogenates. As to the method:
Competitive binding assay. A competitive inhibition binding assay was performed using crude membrane homogenates prepared from HEK-hNPRA cells. To prepare membrane homogenates, cells were rinsed with phosphate-buffered saline and incubated for 15 minutes at 4° C. in hypotonic lysis buffer (10 mM Tris, pH 7.4+5 mM EDTA). Cells were transferred from plates to polypropylene tubes and homogenized. Homogenates were centrifuged at 25,000×g for 20 minutes. Pellets were resuspended in buffer consisting of 50 mM Tris (pH 7.4) and 1 mM EDTA, homogenized and centrifuged at 25,000×g for 20 minutes. Pellets were resuspended in buffer consisting of 100 mM Tris (pH 7.4) and 10 mM MgCl_2 and stored at −80° C. until needed. On the day of an assay, homogenates were thawed and homogenized. […] Assays were stopped by addition of cold wash buffer (phosphate-buffered saline) followed by filtration using a vacuum manifold. Bound radioactivity was determined using a gamma counter. […] Data were analyzed using GraphPad Prism® curve-fitting software.

The target of data set [3] is T1, human natriuretic peptide receptor A. The data set can be described thus: cell-based or functional assay.

Square brackets hold non-standard residues; d marks the D form. Ends that are not written are not given here. Peptide text beside a SMILES is read from it. * marks the point of attachment. Piperazin2one(3S-Bu,6R-CO) = CCCC[C@@H]1NC[C@H](C(=O)*)NC1=O; X1 = N=C(N)NCCC[C@H]1C(=O)N[C@@H](C(N)=O)CN1*; keto‑piperazine surrogate = not defined here; Nle = CCCC[C@H](N)C(=O)O

In data set [1], `CCCC[C@@H]1NC[C@H](C(=O)N[C@@H](C)C(=O)N[C@@H](Cc2c[nH]cn2)C(=O)N[C@@H](Cc2ccccc2)C(=O)NCC(=O)NCC(=O)N[C@@H](CCCNC(=N)N)C(=O)N[C@@H](CCCC)C(=O)N[C@@H](CC(=O)O)C(=O)N[C@@H](CCCNC(=N)N)C(=O)N[C@H](C(=O)N[C@@H](CO)C(=O)N[C@@H](C)C(=O)N[C@@H](Cc2ccc(O)cc2)C(=O)N2C[C@H](C(N)=O)NC(=O)[C@@H]2CCCNC(=N)N)[C@@H](C)CC)NC1=O` [Construct 1-30] ({Piperazin2one(3S-Bu,6R-CO)}-AHFGGR[Nle]DRISAY-X1) showed an AUC of 0.139 µM·h, a Vd of 0.6 L/kg, a clearance of 131 mL/min/kg and a half-life of 6 min.

B1: Construct 1-30 (peptide)
peptide: [keto‑piperazine surrogate]AHFGGR[Nle]DRISAY[keto‑piperazine surrogate]
modifications: reading uncertain; also: further groups not given here
notes: Linear synthetic construct
The molecule B1 had a Ki in data set [2] of 8.7 nM. Besides, the “EC50 (accumulation of intracellular cGMP)” value (from here on “EC50”) in data set [3] turned out to be 80.5 nM.

B2: Construct 1-49 (peptide)
peptide: [keto‑piperazine surrogate]AHFGGR[Nle]DRISAY[keto‑piperazine surrogate]
modifications: reading uncertain; also: further groups not given here
notes: Linear synthetic construct
In data set [2], B2 displayed a Ki of 0.2 nM. The “EC50” value in data set [3] was roughly 12 nM.

B3: Construct 1-16 (peptide)
peptide: [Nle]AHFGGR[Nle]DRISAY[keto‑piperazine surrogate]
modifications: reading uncertain; also: further groups not given here
notes: Linear synthetic construct modelled on mini-ANP
B3: the affinity in data set [2], expressed as Ki, was 88.5 nM. For the same molecule, the “EC50” value in data set [3] was found to be 340 nM.

B4: Construct 1-9 (peptide)
peptide: [keto‑piperazine surrogate]AHFGGR[Nle]DRISAYR
modifications: reading uncertain; also: further groups not given here
notes: Linear synthetic construct
B4: in data set [2], affinity was put at a Ki of 14.5 nM. For the same molecule, the “EC50” value in data set [3] was determined as 550 nM.
